# Assay results as given in patent publication USRE49495E1, “Binding polypeptides having a mutated scaffold” (Affibody AB, priority 2013, dated 2023).
# B1: Z17344 (designed binder)
# chain: MGSSHHHHHHLQAEAKYAKELIEAAAEIDALPNLTRRQWNAFIKKLVRQPEQSSELLSEAKKLSESQAPK
# B2: Z17348 (designed binder)
# chain: MGSSHHHHHHLQAEAKYAKEQDAAAHEIRWLPNLTFDQRVAFIHKLARQPEQSSELLSEAKKLSESQAPK
# B3: PSI0383 (designed binder)
# chain: AEAKYAKEVLEAWDEIDRLPNLTIEQWLAFINKLDRQPEQSSELLSEAKKLSESQAPKVEGSLAEAKEAANAELDSYGVSDFYKRLIDKAKTVEGVEALKDAILAALP
# notes: positions 52-53 changed from ND to SE against PSI0242
# B4: Z17342 (designed binder)
# chain: MGSSHHHHHHLQAEAKYAKEMRNAYWEIALLPNLTNQQKRAFIRKLYRQPEQSSELLSEAKKLSESQAPK
# Tests used:
# [1] = molecular target: T1, human PDGF-Rβ (R&D Systems, cat. no. 385-PR-100/CF) (human, UniProt P09619 33-530, limits assumed); test: SPR Biacore 2000, PDGF-Rβ on CM5 chip, 1:1 binding with mass transfer; sample (0) before stability test; reference Z15805 (0)
# T1 construct: Bought; also called platelet-derived growth factor receptor beta
# T1 sequence (P09619 33-530 limits assumed): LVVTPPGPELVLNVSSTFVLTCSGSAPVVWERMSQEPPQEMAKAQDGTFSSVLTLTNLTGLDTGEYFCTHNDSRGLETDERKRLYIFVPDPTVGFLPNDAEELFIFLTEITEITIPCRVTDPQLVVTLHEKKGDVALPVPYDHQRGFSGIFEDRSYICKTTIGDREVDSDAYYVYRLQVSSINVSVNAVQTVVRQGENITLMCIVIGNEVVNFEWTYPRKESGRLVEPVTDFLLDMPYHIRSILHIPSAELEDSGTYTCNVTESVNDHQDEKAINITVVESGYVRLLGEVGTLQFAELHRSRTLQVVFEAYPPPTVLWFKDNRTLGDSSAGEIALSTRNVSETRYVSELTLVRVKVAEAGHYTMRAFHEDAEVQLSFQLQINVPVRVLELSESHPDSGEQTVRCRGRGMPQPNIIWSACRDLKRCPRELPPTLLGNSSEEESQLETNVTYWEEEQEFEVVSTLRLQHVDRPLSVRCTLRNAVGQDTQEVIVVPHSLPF
# [2] = molecular target: T1, human PDGF-Rβ (R&D Systems, cat. no. …); test: SPR Biacore 2000, PDGF-Rβ on CM5 chip, 1:1 binding with mass transfer; sample (0) before stability test
# [3] = molecular target: T1, human PDGF-Rβ (R&D Systems, cat. no. …); test: SPR Biacore 2000, PDGF-Rβ on CM5 chip, 1:1 binding with mass transfer; KD after 2 weeks at 37 C against KD before
# [4] = molecular target: T1, human PDGF-Rβ (R&D Systems, cat. no. …); test: SPR Biacore 2000, PDGF-Rβ on CM5 chip, 1:1 binding with mass transfer; sample (2w) after 2 weeks at 37 C; reference Z15805 (2w)
# [5] = molecular target: T1, human PDGF-Rβ (R&D Systems, cat. no. …); test: SPR Biacore 2000, PDGF-Rβ on CM5 chip, 1:1 binding with mass transfer; sample (2w) after 2 weeks at 37 C
# [6] = molecular target: human FcRn (Biorbyt, cat. no. orb 84388) (human) (UniProt P55899); test: SPR Biacore 2000, FcRn on CM5 chip, pH 6.0, 1:1 Langmuir; sample (0) before stability test; reference Z10103 (0)
# [7] = molecular target: human FcRn (Biorbyt, cat. no. orb 84388) (human) (UniProt P55899); test: SPR Biacore 2000, FcRn on CM5 chip, pH 6.0, 1:1 Langmuir; KD after 2 weeks at 37 C against KD before
# [8] = molecular target: human FcRn (Biorbyt, cat. no. orb 84388) (human) (UniProt P55899); test: SPR Biacore 2000, FcRn on CM5 chip, pH 6.0, 1:1 Langmuir; sample (2w) after 2 weeks at 37 C; reference Z10103 (2w)
# [9] = molecular target: human FcRn (Biorbyt, cat. no. orb 84388) (human) (UniProt P55899); test: SPR Biacore 2000, FcRn on CM5 chip, pH 6.0, 1:1 Langmuir; sample (0) before stability test
# [10] = molecular target: human FcRn (Biorbyt, cat. no. orb 84388) (human) (UniProt P55899); test: SPR Biacore 2000, FcRn on CM5 chip, pH 6.0, 1:1 Langmuir; sample (2w) after 2 weeks at 37 C
# [11] = molecular target: T2, human C5 (Quidel, cat. no. A403) (human, UniProt P01031 19-673; P01031 678-1676, limits assumed); test: BLI (ForteBio), compound captured on HSA sensor, human C5 0.79-25 nM, 1:1 model
# T2 construct: Bought protein; also called hC5; human complement component 5
# [12] = molecular target: T3, human HER2-Fc (R&D Systems, cat. no. 1129-ER-050) (human, UniProt P04626 23-652); test: SPR Biacore 2000, HER2-Fc on CM5 chip, 1:1 Langmuir; sample (0) before stability test; reference Z02891 (0)
# T3 construct: Bought; also called human epidermal growth factor receptor 2; not shown: Fc part of the bought fusion protein
# [13] = molecular target: T3, human HER2-Fc (R&D Systems, cat. no. …); test: SPR Biacore 2000, HER2-Fc on CM5 chip, 1:1 Langmuir; KD after 2 weeks at 37 C against KD before
# [14] = molecular target: T3, human HER2-Fc (R&D Systems, cat. no. …); test: SPR Biacore 2000, HER2-Fc on CM5 chip, 1:1 Langmuir; sample (2w) after 2 weeks at 37 C
# [15] = molecular target: T3, human HER2-Fc (R&D Systems, cat. no. …); test: SPR Biacore 2000, HER2-Fc on CM5 chip, 1:1 Langmuir; sample (2w) after 2 weeks at 37 C; reference Z02891 (2w)
# [16] = molecular target: T3, human HER2-Fc (R&D Systems, cat. no. …); test: SPR Biacore 2000, HER2-Fc on CM5 chip, 1:1 Langmuir; sample (0) before stability test
binder,measurement,setting,value
B1,KDInv/KDOrig,[1],6.19 ratio
same,Kd,[2],1.2 nM
same,koff,[2],0.0616 s⁻¹
same,kon,[2],5.15e+07 M⁻¹ s⁻¹
same,KD(2w)/KD(0),[3],0.93 ratio
same,KDInv/KDOrig,[4],3.88 ratio
same,Kd,[5],1.1 nM
same,koff,[5],0.0623 s⁻¹
same,kon,[5],5.62e+07 M⁻¹ s⁻¹
B2,KDInv/KDOrig,[6],1.93
same,KD(2w)/KD(0),[7],1.14
same,KDInv/KDOrig,[8],3.46
same,Kd,[9],5.5 nM
same,koff,[9],0.01 s⁻¹
same,kon,[9],1.82e+06 M⁻¹ s⁻¹
same,Kd,[10],6.3 nM
same,koff,[10],0.00809 s⁻¹
same,kon,[10],1.28e+06 M⁻¹ s⁻¹
B3,Rel. KD,[11],2.1 ratio to PSI0242
B4,KDInv/KDOrig,[12],33 ratio
same,KD(2w)/KD(0),[13],1.31 ratio
same,Kd,[14],2.3 nM
same,koff,[14],0.0015 s⁻¹
same,kon,[14],649000 M⁻¹ s⁻¹
same,KDInv/KDOrig,[15],37 ratio
same,Kd,[16],1.8 nM
same,koff,[16],0.00157 s⁻¹
same,kon,[16],894000 M⁻¹ s⁻¹
